# Test results as given in US20140024076A1 (AstraZeneca / MedImmune, published 2014).
# B1: motavizumab (antibody, V domains shown)
# VH: QVTLRESGPALVKPTQTLTLTCTFSGFSLSTAGMSVGWIRQPPGKALEWLADIWWDDKKHYNPSLKDRLTISKDTSKNQVVLKVTNMDPADTATYYCARDMIFNFYFDVWGQGTTVTVSS
# VL: DIQMTQSPSTLSASVGDRVTITCSASSRVGYMHWYQQKPGKAPKLLIYDTSKLASGVPSRFSGSGSGTEFTLTISSLQPDDFATYYCFQGSGYPFTFGGGTKVEIK
# Target: RSV-F protein, full-length, human RSV strain A2 (human respiratory syncytial virus, …, UniProt P03420 26-574)
# Experiment: 25 nM Eu3+-labeled antibody on tetracycline-induced 293-derived cells, 44 h post induction; time-resolved fluorescence, R3-47 nonspecific binding subtracted
binder,measurement,value
B1,"fold amount of antibody bound, FGC-WPRE cell line compared to FGC cell line",6.31 fold
